Molecular target: T1, GST-Scd6 (S. cerevisiae, UniProt P45978 1-349)
T1 construct: Scd6, S. cerevisiae; source: E. coli BL21 (DE3), purified (glutathione-sepharose beads)
T1 sequence (looked up): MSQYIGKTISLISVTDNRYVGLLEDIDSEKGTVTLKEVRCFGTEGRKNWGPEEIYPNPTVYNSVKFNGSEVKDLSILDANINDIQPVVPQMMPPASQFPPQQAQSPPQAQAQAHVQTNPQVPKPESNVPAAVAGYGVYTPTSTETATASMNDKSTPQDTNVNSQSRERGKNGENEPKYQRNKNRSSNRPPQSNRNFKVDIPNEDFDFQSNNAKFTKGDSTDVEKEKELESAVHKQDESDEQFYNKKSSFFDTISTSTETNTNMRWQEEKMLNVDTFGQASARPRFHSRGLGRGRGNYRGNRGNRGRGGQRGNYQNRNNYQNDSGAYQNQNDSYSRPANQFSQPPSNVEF
Assay: pull-down; His6-Hmt1 incubated with GST or GST-Scd6 immobilized on glutathione-sepharose beads for 3 h at 4°C, 5 washes with PBS; Coomassie staining and anti-His immunoblot
Conditions: both partners purified

B1: His6-Hmt1 (natural protein, S. cerevisiae, UniProt P38074 1-348, looked up)
chain: MSKTAVKDSATEKTKLSESEQHYFNSYDHYGIHEEMLQDTVRTLSYRNAIIQNKDLFKDKIVLDVGCGTGILSMFAAKHGAKHVIGVDMSSIIEMAKELVELNGFSDKITLLRGKLEDVHLPFPKVDIIISEWMGYFLLYESMMDTVLYARDHYLVEGGLIFPDKCSIHLAGLEDSQYKDEKLNYWQDVYGFDYSPFVPLVLHEPIVDTVERNNVNTTSDKLIEFDLNTVKISDLAFKSNFKLTAKRQDMINGIVTWFDIVFPAPKGKRPVEFSTGPHAPYTHWKQTIFYFPDDLDAETGDTIEGELVCSPNEKNNRDLNIKISYKFESNGIDGNSRSRKNEGSYLMH
notes: Hmt1, S. cerevisiae; source: E. coli BL21 (DE3), purified (Ni-NTA agarose, imidazole elution, dialyzed)
binding result: binds

Source: paper PMC5077174, “Analysis of the Physiological Activities of Scd6 through Its Interaction with Hmt1” (PLoS ONE, 2016)
